The term Kd denotes the concentration at which binding is half-saturated. A higher Kd goes with a looser complex.

Read-outs that look alike come from different tables or passages of the source.

To fix the notation:
B2: human NPC2 (natural protein)
chain: EPVQFKDCGSVDGVIKEVNVSPCPTQPCQLSKGQSYSVNVTFTSNIQSKSSKAVVHGILMGVPVPFPIPEPDGCKSGINCPIQKDKTYSYLNKLPVKSEYPSIKLVVEWQLQDDKNQSLFCWEIPVQIVSHL

Holding throughout (assay): ITC
The test “human NPC2” concerns the target B2.
For test [1], the target named is T1, full-length human NPC1 (Niemann-Pick C1) (human, UniProt O15118 23-1278).
T1 sequence: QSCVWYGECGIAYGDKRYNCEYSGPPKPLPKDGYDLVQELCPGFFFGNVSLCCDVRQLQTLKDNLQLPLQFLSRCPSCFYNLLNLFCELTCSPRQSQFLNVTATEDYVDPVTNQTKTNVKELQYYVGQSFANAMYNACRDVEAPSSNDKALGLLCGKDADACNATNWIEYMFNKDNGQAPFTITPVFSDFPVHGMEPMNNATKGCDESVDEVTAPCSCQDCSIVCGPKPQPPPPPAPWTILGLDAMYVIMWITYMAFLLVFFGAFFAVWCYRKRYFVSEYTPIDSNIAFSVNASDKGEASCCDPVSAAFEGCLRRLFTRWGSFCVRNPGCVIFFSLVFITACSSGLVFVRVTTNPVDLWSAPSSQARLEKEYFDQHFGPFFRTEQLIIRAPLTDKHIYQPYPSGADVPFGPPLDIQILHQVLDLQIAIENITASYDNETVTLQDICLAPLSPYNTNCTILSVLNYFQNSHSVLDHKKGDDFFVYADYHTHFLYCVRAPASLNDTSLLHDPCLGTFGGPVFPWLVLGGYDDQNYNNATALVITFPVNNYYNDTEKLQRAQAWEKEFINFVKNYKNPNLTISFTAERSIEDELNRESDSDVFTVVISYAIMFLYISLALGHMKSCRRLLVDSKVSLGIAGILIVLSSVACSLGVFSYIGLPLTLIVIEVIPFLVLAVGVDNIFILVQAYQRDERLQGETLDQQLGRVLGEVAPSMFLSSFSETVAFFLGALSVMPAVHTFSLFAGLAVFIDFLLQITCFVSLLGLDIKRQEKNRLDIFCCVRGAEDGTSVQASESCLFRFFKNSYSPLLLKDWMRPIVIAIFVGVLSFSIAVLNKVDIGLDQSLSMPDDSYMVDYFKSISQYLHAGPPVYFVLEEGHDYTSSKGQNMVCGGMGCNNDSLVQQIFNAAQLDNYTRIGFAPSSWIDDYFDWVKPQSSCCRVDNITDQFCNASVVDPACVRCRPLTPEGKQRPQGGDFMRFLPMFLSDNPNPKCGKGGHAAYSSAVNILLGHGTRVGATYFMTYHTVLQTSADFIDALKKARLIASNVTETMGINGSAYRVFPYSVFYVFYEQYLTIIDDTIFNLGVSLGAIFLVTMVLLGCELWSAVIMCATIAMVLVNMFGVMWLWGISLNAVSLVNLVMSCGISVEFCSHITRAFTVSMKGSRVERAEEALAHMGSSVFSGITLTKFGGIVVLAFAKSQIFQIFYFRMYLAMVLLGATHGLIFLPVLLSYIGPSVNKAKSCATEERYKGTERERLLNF

In test [2] the target is T1, full-length human NPC1 (Niemann-Pick C1). The source holds these as a separate data set.

B1: human NPC1 ΔLinker (full length with internal deletion of the Pro-rich segment 249…257) (natural protein)
chain: QSCVWYGECGIAYGDKRYNCEYSGPPKPLPKDGYDLVQELCPGFFFGNVSLCCDVRQLQTLKDNLQLPLQFLSRCPSCFYNLLNLFCELTCSPRQSQFLNVTATEDYVDPVTNQTKTNVKELQYYVGQSFANAMYNACRDVEAPSSNDKALGLLCGKDADACNATNWIEYMFNKDNGQAPFTITPVFSDFPVHGMEPMNNATKGCDESVDEVTAPCSCQDCSIVCGAPWTILGLDAMYVIMWITYMAFLLVFFGAFFAVWCYRKRYFVSEYTPIDSNIAFSVNASDKGEASCCDPVSAAFEGCLRRLFTRWGSFCVRNPGCVIFFSLVFITACSSGLVFVRVTTNPVDLWSAPSSQARLEKEYFDQHFGPFFRTEQLIIRAPLTDKHIYQPYPSGADVPFGPPLDIQILHQVLDLQIAIENITASYDNETVTLQDICLAPLSPYNTNCTILSVLNYFQNSHSVLDHKKGDDFFVYADYHTHFLYCVRAPASLNDTSLLHDPCLGTFGGPVFPWLVLGGYDDQNYNNATALVITFPVNNYYNDTEKLQRAQAWEKEFINFVKNYKNPNLTISFTAERSIEDELNRESDSDVFTVVISYAIMFLYISLALGHMKSCRRLLVDSKVSLGIAGILIVLSSVACSLGVFSYIGLPLTLIVIEVIPFLVLAVGVDNIFILVQAYQRDERLQGETLDQQLGRVLGEVAPSMFLSSFSETVAFFLGALSVMPAVHTFSLFAGLAVFIDFLLQITCFVSLLGLDIKRQEKNRLDIFCCVRGAEDGTSVQASESCLFRFFKNSYSPLLLKDWMRPIVIAIFVGVLSFSIAVLNKVDIGLDQSLSMPDDSYMVDYFKSISQYLHAGPPVYFVLEEGHDYTSSKGQNMVCGGMGCNNDSLVQQIFNAAQLDNYTRIGFAPSSWIDDYFDWVKPQSSCCRVDNITDQFCNASVVDPACVRCRPLTPEGKQRPQGGDFMRFLPMFLSDNPNPKCGKGGHAAYSSAVNILLGHGTRVGATYFMTYHTVLQTSADFIDALKKARLIASNVTETMGINGSAYRVFPYSVFYVFYEQYLTIIDDTIFNLGVSLGAIFLVTMVLLGCELWSAVIMCATIAMVLVNMFGVMWLWGISLNAVSLVNLVMSCGISVEFCSHITRAFTVSMKGSRVERAEEALAHMGSSVFSGITLTKFGGIVVLAFAKSQIFQIFYFRMYLAMVLLGATHGLIFLPVLLSYIGPSVNKAKSCATEERYKGTERERLLNF
Take B1: the Kd with human NPC2 stood at 266 ± 25.5 µM.
For B2, the values for the equilibrium dissociation constant (Kd) in test [1] and in test [2] were 15.8 ± 1.2 µM and 217 ± 35.3 µM, respectively.

The values are drawn from article PMC7111323 (Cell, 2016).
